B1: TPR t1 (parent)
chain: GACCAAUCUGCCCUCAGAGCUCGAGAACAUCUUCGGAUGCAGAGGAGGCAGGCUUCGGUGGCGCGAUAGCGCCAACGUCCUCAACCUCCAAUGCAUCCCACCACAUGAUGAUGCCUGAAGAGCCUUGGUUUUUUG

Variants of: B1
Test: polymerase ribozyme fitness, log enrichment relative to wild type (log ratio); higher = more active; in vitro selection for triplet polymerase activity
Outline: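 Fitness compares each genotype's enrichment to that of the wild type on a logarithmic scale, averaging replicates with inverse-variance weights. The logarithm is base 2. Enrichment came from Illumina sequencing of input and output libraries after one triplicate round of in vitro selection, which included frozen incubation at −7 °C, of PCR-built, transcribed mutant libraries of each subunit of a heterodimeric triplet polymerase ribozyme. Only genotypes with ≥10 input reads and ≥1 read per output were kept.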

Row | Variant | polymerase ribozyme fitness (log ratio)
1 | C8G A37C G48U C85A | 0.211
2 | C8G A68G G71U A108G | -4.73
3 | C8G C56U C104A U129G | -1.17
4 | C8A G69A | -1.52
5 | C8G C70G A74U | -4.41
6 | C8G G47C G60A | -1.03
7 | C8G G47C G69U U92A G93U C123A U126A | -3.8
8 | C8G G60U C85G A108U U131A | -5.69
9 | C8G C13G A37C G52C C62G C86U | -4.08
10 | C8G G71U C82U C86U | -1.12
11 | C8G C49A G71U U92A C123U | -2.6
12 | C8G C80G G113U | -5.81
13 | C8G A46G C72U G110A | -0.393
14 | C8G C49G C82G A118U | 0.164
15 | C8A G110U | -0.434
16 | C8G G45A C56U C94A C101A | -1.64
17 | C8G C22U C40G G120A C124A | -2.61
18 | C8A U21A C34G U109G | -6.49
19 | C8A G61C | -0.912
20 | C8A G61U | -0.146
21 | C8G G19A A46C G71A | -3.53
22 | C8G G42C C70G | -5.8
23 | C8G C34U C53G A90U G120A | -5.88
24 | C8G A16G C56G A83C | 0.0154

Row | Variant | polymerase ribozyme fitness (log ratio)
25 | C8G C13A G57C U78G U112A A118U | 0.98
26 | C8G C114U | -0.759
27 | C8G C13G A16U C49A U129C | -0.993
28 | C8G C11U C22G C72U | -3.41
29 | C8A G63U A119U | -1.39
30 | C8G G61A U78C U92A | -3.12
31 | C8A G120C | 1.71
32 | C8G A74U U78G | 0.422
33 | C8G A16U C94A | -0.757
34 | C8A U109A | -4.14
35 | C8G C70A U92G | -5.61
36 | C8G C85U C86G | -0.513
37 | C8G C53G A66U G120U | 1.03
38 | C8G A46U | -0.191
39 | C8G C73U A119U | 0.0435
40 | C8G C13G G17A G122A | -0.902
41 | C8G G60C A66C U131G | -3.98
42 | C8G C13G C15G C34A A46C C88U C123U | -5.49
43 | C8A U59G G107U | -5.05
44 | C8G C79U U96A U130C U133G | -0.147
45 | C8G C20U C40G A90U C102U | -6.69
46 | C8G C123U | 1.6
47 | C8G A27G G93U C104A A111U U125C | -4.25
48 | C8G A18C C89A | -0.827

Row | Variant | polymerase ribozyme fitness (log ratio)
49 | C8G C70U C115U | -2.38
50 | C8G C12U G51A U129G | -3.08
51 | C8G G10A A18G G65C U116G G117A | -5.46
52 | C8G C15U | -1.19
53 | C8A U55G C114A C115U | -2.83
54 | C8A G51U U59A A83U C85G U106A | -6.35
55 | C8G C85A C124U | 1.24
56 | C8G C22U G23A C123G | -7.38
57 | C8A U14C G39U C102G G117A | -6.22
58 | C8G C22A C62U U106A | -3.64
59 | C8G C20U U81G | -4.46
60 | C8A U55C C79G C94A | -3.64
61 | C8G C86G C114A | 0.194
62 | C8A U38A G42U G45A G61U | -1.89
63 | C8G C20U G36C C49A A75G A100U | -2.01
64 | C8G A24C U38G G44A G63A C88U A95C G117U | -7.47
65 | C8G C70U A74U C98U G110A | -6.03
66 | C8G G17C C40U G61U U106A U131A | -4.28
67 | C8G C82A A90U U92G G117U G120C | -1.01
68 | C8G G63C U92A | -3.28
69 | C8G A50U U54C G69U U106A G117A | 0.535
70 | C8G C124U | 0.949
71 | C8G C15U G39A C62G | -2.54
72 | C8A U9G A41G G69U | -0.102

Row | Variant | polymerase ribozyme fitness (log ratio)
73 | C8G G36U A119G U133G | 0.386
74 | C8G C11A A50U U81C | -2.29
75 | C8A G117A A121U | 1.21
76 | C8G G39A A43C C64U | -2.65
77 | C8G C73U | 0.902
78 | C8G G48C A50U C53A C62G U129C | -2.9
79 | C8G C22G G47A G77U | -4.32
80 | C8G A18U C22G G117U | -2.97
81 | C8G C20U G113C | -1.52
82 | C8G C89A | -1.01
83 | C8G C89U U106A | 0.442
84 | C8A G71U | -0.261
85 | C8G C73U C79U | 0.882
86 | C8G C40U G60C | -0.367
87 | C8G C12A G17C A29G A46U G47A C72U | -6.22
88 | C8G C15G C76G | -1.01
89 | C8G C56A C94U | 0.74
90 | C8G C20A U96A U131G | -3.68
91 | C8A U132A | 0.369
92 | C8G A29U | -1.15
93 | C8A G58A G60A | -0.486
94 | C8A G52A C72G | 0.47
95 | C8G C12G | 0.399
96 | C8A G93A G117U G128U | -4.74

Row | Variant | polymerase ribozyme fitness (log ratio)
97 | C8G C13G C40U U54G | 0.0381
98 | C8A G61C G122A | -0.605
99 | C8G C13A U67C | -4.98
100 | C8G G39U | 0.57
101 | C8A G93A A108G | -2.37
102 | C8G G93A G113A | -0.312
103 | C8A U59G C72G U133G | -3.35
104 | C8G G47A U130C | 0.26
105 | C8G G19U C94U | -2.66
106 | C8A U32C C49A | 0.0595
107 | C8G A29U G60A G77C | -2.46
108 | C8G A46G G110A | -0.456
109 | C8A G93C A100C C115U | -4.5
110 | C8G C15U C22U | -4.73
111 | C8G C22G U125G U131G | -6
112 | C8G C15U C62U G135U | -1.08
113 | C8G G60U | 0.698
114 | C8G G60A | 0.62
115 | C8G G60C | 0.0647
116 | C8G C28G C64U U116G A121G | -2.9
117 | C8G G42U G45A C56U | -0.791
118 | C8A U33G A37U | -6.73
119 | C8G C99U | -2.82
120 | C8G A18G G19A A27C | -3.93

Row | Variant | polymerase ribozyme fitness (log ratio)
121 | C8G G17U G48A G57U G69U A105U | -2.21
122 | C8G G69C U96A | -2.59
123 | C8A U21A A46U | -1.03
124 | C8G C11U C40U G61C A90G C97U U129G | -3.08
125 | C8G C34A C40U U55A G69U C79U C98U G107U A111U G117C | -6.38
126 | C8G C97U U109G C123U | -4.98
127 | C8G G42A G63A | -2.89
128 | C8G A41G U78G G122U | -0.0287
129 | C8A U130G | 0.269
130 | C8G C31G C82A C124U | -6.38
131 | C8G A43G G69C | -3.18
132 | C8G A41C | -1.28
133 | C8G C49A U96A | -0.377
134 | C8G C62U U106A G113U | -1.94
135 | C8G G47A C97A G120U | -2.93
136 | C8G C56A U125A U133G | -0.732
137 | C8A G61A G63A | -6.8
138 | C8G A46G C56A A84C C104A C115U A118U A119U | -4.77
139 | C8G C11U U21C U132A | -0.171
140 | C8G G17U A26U C72G | -4.46
141 | C8G G10U G69U U81C | -0.318
142 | C8A U87A G107C | -4.36
143 | C8G A66G C85A C114U | -3.3
144 | C8G G61A C72U G128C | -0.569

Row | Variant | polymerase ribozyme fitness (log ratio)
145 | C8G G57A A84U G120U | 0.672
146 | C8G A74C G120C | 1.98
147 | C8G C76U C82G G93A U116C | -2.26
148 | C8A U96C U116G | -0.0172
149 | C8G G60C U81A C123A | 0.434
150 | C8G G10C C73G U81A C88U | -1.77
151 | C8A G77A | 0.514
152 | C8G G10A C15G G77C G110A | -3.26
153 | C8G A37U A90U G93C U132A | -2.23
154 | C8G A26U G52A G63C | -4.29
155 | C8G A46U G52U C56A C82U C101A | -1.86
156 | C8G C40A C49G G52U G120C U132A | 0.561
157 | C8G A16G A41G | 0.487
158 | C8A G52U C89U | -0.556
159 | C8A U54A C62U G110U U125C | -1.99
160 | C8G G69A C88A | -2.65
161 | C8G G17C A29U U87G G120A | -2.2
162 | C8G C12U C15U G120U | 2.64
163 | C8A G63A C98A | -5.9
164 | C8A G60U C104G C124U | -5.09
165 | C8G G42U G60C U81A U129G | -6.22
166 | C8G C70A | -0.64
167 | C8G C28G C56A C88A | -3.47

Reference: the RNAGym collection of RNA variant scans (doi:10.1073/pnas.2313332121)
